# From patent US10774121B2, “Methods and compositions for treating neurodegenerative disorders and Alzheimer's Disease and improving normal memory” (The Regents of the University of California, priority 2006, dated 2020)
# Test system: protein tyrosine kinase activity
# Assay: Protein tyrosine kinase ELISA on extracts of β-APP-transfected ES double-null cells mixed with PS-1-transfected DAMI cells
# Format: cell-based
# Details: 25 μg protein added, 0-20 min after mixing
# Method: DAMI:ES cells: Equal numbers (0.5×10^6/ml) of β-APP 695 (Selkoe and Podlisny, 2002)-transfected ES double-null cells and PS-1 transfected DAMI cells were co-cultured at 37° C. for various times between 0-20 mins.
# At several times between 0 and 20 min after mixing, an aliquot of each cell mixture was rapidly centrifuged, the culture medium was removed, and the cell pellet was suspended in 200 μl of extraction buffer (50 mM Tris, pH 8.0/150 mM NaCl/0.5% Nonidet-P40) containing protease inhibitors (1 mM 4-(2-aminoethyl) benzene sulfonyl fluoride hydrochloride (AEBSF)/1 μg/ml antipain/0.1 μg/ml pepstatin A/0.1 μg/ml leupeptin) and the phosphatase inhibitor sodium orthovanadate (0.1 mM). The mixture was sonicated with three bursts of 20 sec duration and then centrifuged. These extract supernatants were then used for Western blot and ELISA analyses as described below.
# ELISAs Protein tyrosine kinase activity was measured by an Enzyme Linked Immunosorbent Assay (ELISA) using a tyrosine kinase assay kit (Upstate Biotechnology). A biotinylated substrate peptide containing tandem repeats of Poly (Glu4-Tyr) was incubated with supernatants of extracts of transfected cells mixed for different times ([…]) in the presence of non-radioactive ATP and a Mn^2+/Mg^2+ co-factor cocktail according to the manufacturer's protocols. […]
molecule,measurement,setting,value
"N-terminal domain of PS-2 fused to FLAG: fusion protein with FLAG attached at the N-terminus of the PS-2 N-terminal domain (protein, left off: small tags and cut ends, fusion protein with FLAG attached at the N-terminus of the PS-2 N-terminal domain) MLTFMASDSEEEVCDERTSLMSAESPTPRSCQEGRQGPEDGENTAQWRSQENEEDGEEDPDRYVCSGVPGRPPGLEEELTLKYGAKH",transient increase in protein tyrosine kinase activity after cell mixing,,very similar transient increases
same,transient increase in protein tyrosine kinase activity after cell mixing,listed as FLAG-PS-2 N-terminal domain fusion peptide,did not inhibit
